What is called pKd is −log10 of the Kd, conventionally taken in molar units. A low value points to a large Kd.

pKd: −log10 of the molar value.

20 substances from paper PMC4446439 can be followed below.

The test system of this data set is LSD1Δ1 (KDM1);CoRESTΔ1 (human;human). The data set can be described thus: HI-FI fluorescence quenching. Conditions: 20 mM Tris-HCl pH 7.6, 50 mM NaCl, 5 mM DTT, 5% glycerol, 0.01% NP40, 0.01% CHAPS, 100 ug/ml BSA, 2 mM EDTA, room temperature, 15 min.
For 207 bp nucleosome 31N31, H3 K27C, the pKd was 6.58.
For 155 bp nucleosome 5N5, H3 K27C the value was 6.38; for 161 bp nucleosome 8N8, H3 K27C, 6.63; for 163 bp nucleosome 9N9, H3 K27C, 6.63.
The value for 157 bp nucleosome 6N6, H3 A21C was 7.75; that for 161L nucleosome 15N1, H3 K27C was 6.39.
Regarding 207 bp nucleosome 31N31, H3 A21C, the pKd is 8.52.
The value for 177L nucleosome 31N1, H3 K27C was 6.11; that for 181 bp nucleosome 18N18, H3 A21C was 8.42.
For 159 bp nucleosome 7N7, H3 K27C, the pKd is 6.63.
151 bp nucleosome 3N3, H3 K27C gave a pKd of 6.15.
185 bp nucleosome 20N20, H3 K27C: the pKd was 6.87.
The value for 177 bp nucleosome 16N16, H3 K27C was 6.67.
For 151L nucleosome 5N1, H3 K27C the value was 6.14.
The value for 157 bp nucleosome 6N6, H3 K27C was 6.33; that for 169 bp nucleosome 12N12, H3 K27C was 6.55; that for 165 bp nucleosome 10N10, H3 K27C was 6.69.
Substance 181 bp nucleosome 18N18, H3 K27C showed a pKd of 7.00.
147 bp nucleosome 1N1, H3 K27C: the pKd was 5.78.
For 147 bp nucleosome 1N1, H3 A21C the value was 7.09.
